In publication PMC2586830 (Molecular Microbiology, 2008):
Read-outs that look alike come from different tables or passages of the source.

B1: CFP–BaeR / YFP–BaeR, phosphorylated (natural protein)
chain: MTELPIDENTPRILIVEDEPKLGQLLIDYLRAASYAPTLISHGDQVLPYVRQTPPDLILLDLMLPGTDGLTLCREIRRFSDIPIVMVTAKIEEIDRLLGLEIGADDYICKPYSPREVVARVKTILRRCKPQRELQQQDAESPLIIDEGRFQASWRGKMLDLTPAEFRLLKTLSHEPGKVFSREQLLNHLYDDYRVVTDRTIDSHIKNLRRKLESLDAEQSFIRAVYGVGYRWEADACRIV
modifications: phosphorylated in vitro with phosphoramidate and MgSO4 (conserved aspartate of the receiver domain; residue number not given)
B2: CFP–ArcA / YFP–ArcA, phosphorylated (natural protein)
chain: MQTPHILIVEDELVTRNTLKSIFEAEGYDVFEATDGAEMHQILSEYDINLVIMDINLPGKNGLLLARELREQANVALMFLTGRDNEVDKILGLEIGADDYITKPFNPRELTIRARNLLSRTMNLGTVSEERRSVESYKFNGWELDINSRSLIGPDGEQYKLPRSEFRAMLHFCENPGKIQSRAELLKKMTGRELKPHDRTVDVTIRRIRKHFESTPDTPEIIATIHGEGYRFCGDLED
modifications: phosphorylated in vitro with phosphoramidate and MgSO4 (conserved aspartate of the receiver domain; residue number not given)
B3: CFP–KdpE / YFP–KdpE, phosphorylated (natural protein)
chain: MTNVLIVEDEQAIRRFLRTALEGDGMRVFEAETLQRGLLEAATRKPDLIILDLGLPDGDGIEFIRDLRQWSAVPVIVLSARSEESDKIAALDAGADDYLSKPFGIGELQARLRVALRRHSATTAPDPLVKFSDVTVDLAARVIHRGEEEVHLTPIEFRLLAVLLNNAGKVLTQRQLLNQVWGPNAVEHSHYLRIYMGHLRQKLEQDPARPRHFITETGIGYRFML
modifications: phosphorylated in vitro with phosphoramidate and MgSO4 (conserved aspartate of the receiver domain; residue number not given)
B4: CFP–CusR / YFP–CusR, phosphorylated (natural protein)
chain: MKLLIVEDEKKTGEYLTKGLTEAGFVVDLADNGLNGYHLAMTGDYDLIILDIMLPDVNGWDIVRMLRSANKGMPILLLTALGTIEHRVKGLELGADDYLVKPFAFAELLARVRTLLRRGAAVIIESQFQVADLMVDLVSRKVTRSGTRITLTSKEFTLLEFFLRHQGEVLPRSLIASQVWDMNFDSDTNAIDVAVKRLRGKIDNDFEPKLIQTVRGVGYMLEVPDGQ
modifications: phosphorylated in vitro with phosphoramidate and MgSO4 (conserved aspartate of the receiver domain; residue number not given)
B5: CFP–TorR / YFP–TorR, phosphorylated (natural protein)
chain: MPHHIVIVEDEPVTQARLQSYFTQEGYTVSVTASGAGLREIMQNQSVDLILLDINLPDENGLMLTRALRERSTVGIILVTGRSDRIDRIVGLEMGADDYVTKPLELRELVVRVKNLLWRIDLARQAQPHTQDNCYRFAGYCLNVSRHTLERDGEPIKLTRAEYEMLVAFVTNPGEILSRERLLRMLSARRVENPDLRTVDVLIRRLRHKLSADLLVTQHGEGYFLAADVC
modifications: phosphorylated in vitro with phosphoramidate and MgSO4 (conserved aspartate of the receiver domain; residue number not given)
B6: CFP–CreB / YFP–CreB, phosphorylated (natural protein)
chain: MQRETVWLVEDEQGIADTLVYMLQQEGFAVEVFERGLPVLDKARKQVPDVMILDVGLPDISGFELCRQLLALHPALPVLFLTARSEEVDRLLGLEIGADDYVAKPFSPREVCARVRTLLRRVKKFSTPSPVIRIGHFELNEPAAQISWFDTPLALTRYEFLLLKTLLKSPGRVWSRQQLMDSVWEDAQDTYDRTVDTHIKTLRAKLRAINPDLSPINTHRGMGYSLRGL
modifications: phosphorylated in vitro with phosphoramidate and MgSO4 (conserved aspartate of the receiver domain; residue number not given)
B7: CFP–CpxR / YFP–CpxR, phosphorylated (natural protein)
chain: MNKILLVDDDRELTSLLKELLEMEGFNVIVAHDGEQALDLLDDSIDLLLLDVMMPKKNGIDTLKALRQTHQTPVIMLTARGSELDRVLGLELGADDYLPKPFNDRELVARIRAILRRSHWSEQQQNNDNGSPTLEVDALVLNPGRQEASFDGQTLELTGTEFTLLYLLAQHLGQVVSREHLSQEVLGKRLTPFDRAIDMHISNLRRKLPDRKDGHPWFKTLRGRGYLMVSAS
modifications: phosphorylated in vitro with phosphoramidate and MgSO4 (conserved aspartate of the receiver domain; residue number not given)
B8: CFP–QseB / YFP–QseB, phosphorylated (natural protein)
chain: MRILLIEDDMLIGDGIKTGLSKMGFSVDWFTQGRQGKEALYSAPYDAVILDLTLPGMDGRDILREWREKGQREPVLILTARDALAERVEGLRLGADDYLCKPFALIEVAARLEALMRRTNGQASNELRHGNVMLDPGKRIATLAGEPLTLKPKEFALLELLMRNAGRVLSRKLIEEKLYTWDEEVTSNAVEVHVHHLRRKLGSDFIRTVHGIGYTLGEK
modifications: phosphorylated in vitro with phosphoramidate and MgSO4 (conserved aspartate of the receiver domain; residue number not given)
B9: CFP–PhoP / YFP–PhoP, phosphorylated (natural protein)
chain: MRVLVVEDNALLRHHLKVQIQDAGHQVDDAEDAKEADYYLNEHIPDIAIVDLGLPDEDGLSLIRRWRSNDVSLPILVLTARESWQDKVEVLSAGADDYVTKPFHIEEVMARMQALMRRNSGLASQVISLPPFQVDLSRRELSINDEVIKLTAFEYTIMETLIRNNGKVVSKDSLMLQLYPDAELRESHTIDVLMGRLRKKIQAQYPQEVITTVRGQGYLFELR
modifications: phosphorylated in vitro with phosphoramidate and MgSO4 (conserved aspartate of the receiver domain; residue number not given)

Experiments:
PhoB (Escherichia coli) [1] = target: PhoB (Escherichia coli) (UniProt P0AFJ5); test: analytical ultracentrifugation; conditions: cited from earlier work
PhoB (Escherichia coli) [2] = target: PhoB (Escherichia coli) (UniProt P0AFJ5); conditions: cited from earlier work
FRET or BRET = target: the molecule itself; test: FRET or BRET

PhoB (Escherichia coli), sequence (P0AFJ5 whole entry): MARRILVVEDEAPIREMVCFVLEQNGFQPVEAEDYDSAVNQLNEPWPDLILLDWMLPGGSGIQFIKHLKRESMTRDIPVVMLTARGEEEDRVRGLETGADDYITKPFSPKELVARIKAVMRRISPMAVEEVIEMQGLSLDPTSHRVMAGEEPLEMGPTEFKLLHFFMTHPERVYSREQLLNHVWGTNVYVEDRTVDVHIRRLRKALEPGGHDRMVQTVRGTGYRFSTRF

| Molecule | Kd (PhoB (Escherichia coli) [1]) [µM] | Kd (PhoB (Escherichia coli) [2]) [µM] | binding result (FRET or BRET) |
| --- | --- | --- | --- |
| PhoB (from UniProt P0AFJ5) | 5.1 | 378 |  |
| B1 |  |  | binds |
| B2 |  |  | binds |
| B3 |  |  | binds |
| B4 |  |  | binds |
| B5 |  |  | binds |
| B6 |  |  | binds |
| B7 |  |  | binds |
| B8 |  |  | binds |
| B9 |  |  | binds |
